The nanobody polyreactivity screen of Harvey et al. (2022)

Assay: yeast display, Sf9 membrane polyspecificity reagent, FACS + sequencing; frameworks hold sequencing errors
In short: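 Synthetic nanobody libraries on Saccharomyces cerevisiae BJ5465 were galactose-induced for 36–48 hours, stained 1 hour at 4 °C with 10% biotinylated, detergent-solubilized Sf9 membrane reagent and enriched on streptavidin microbeads. FACS then separated cells into low and high (top ~1%) gates by anti-HA (expression) and streptavidin (reagent binding) fluorescence. Genes were colony-PCR amplified, MiSeq 2 × 250 sequenced and CDR-length filtered. A clone's polyreactivity label is that of its gate of origin.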

Sequence	polyreactivity (PSR sort gate)
QVHLVESVGGLVQAGGILRLSCAASGFTFYSYAMGCYRQAPGNERELVAAITRSGGNTYYADSVKGRFTISRDNAKNTVYLQMNSLKPEDTAVYYCDATGKRISPSHYYCGQGTQVTVSS	high polyreactivity
QVHLVESVGGLVQAGGSLRLSCAASGGIFCVYAMGWYRQAPGKERELVAAISNSDTSTSYADSVKGRFTISRDNAKNTVYLQMNCLKPEVTAVYYCNADSPSLSGDYWGQGTQVTVSS	low polyreactivity
QVHLVESVGGLVQAGGSLRLSCAASGRIFYRNAMGCYRQAPGKERELVAAINTGGDGTYYADSVKGRFTISRDNAKNTVYLQMNSLKPEDTAVYYCAADRSSFYWSHGTVYGYDYWGQGTQVTVSS	low polyreactivity
QVHLVETGGALVQAGGSLSISCAASGSIYHGYTMGWYRQAPGKERELVAAINSGDGSTYADSVKGRFTISRDNAKNTVYLQMNSLKQEDTAVYYCAALYAVYWPWYVREYDYWGHGTQVTVSS	low polyreactivity
QVHLVETGGGLLQAGGSLRLSFAASGFTFWRYAMGWSRQAPGKESELVAAISRTGGRTYYADSLKGRFTISRDHAKNTVYLQMNSLNPEDTAVYYCNAPRGYSSTRNGYWGQGTQVTVSS	high polyreactivity
QVHLVQSGGGIVQAGGSLRLSCPASGSIFGYYAMGWYRQPRGKERELVAAITGGGRTYYADSVKGRFTISRDNAKNTVYLQMNSLKPEDTGVYYCTARSTSYRSYWRDYWGQGTHVTVSS	high polyreactivity
QVHRVESGGGLVQAGGSLRLSCAASGSIFSYYDLGWYRQAPGNERELVAAISWDGGDRTYADSVKGRFTISRDNAKNNVYLQMNSLKPEDSAVYYCAKNTGSYRRVNLDYWGQGTQVTVSS	low polyreactivity
QVKLKESVGGLVQAGGSLRLSCAASGSISATGHMGWYRQAPGEERELVAAINFGSNTYYADSVKGLFTISRDNAINTVYLQKSGLKPEDTAVYYWAVDGWYVGPYYYWGQGTQVTVSS	high polyreactivity
QVKLVESAGGLVQAGGSRRLSCAASGSIFRAYAMGWYRQAPGKESELVADISRSGGSTYYADSVKGRFTISRDNAKNNVYLQMNSLIPEDTAVYYCNRLPQYALPYRHNGYWGQGTQVTVSS	low polyreactivity
QVKLVESGAGLVQAGGSLRLSCAASGIIFAQYTMGWYRQAPGKERELVAAINRNGGSTYYADSVKGRFTISRDNAKNTVYLQMNSLKPEDTAVYYCNAEALGFRYDYWGQGTQVTVSS	low polyreactivity
QVKLVESGGCLVQEGGSLRLSCAASGSIFGHYVMRWYRQAPGKERELVAAINRGGSTYYADSVKGRFTISRDNAKNTVYLQMNSLKPEDTAVYYCAAGYPSWYYGYPYDSWGQGTQVTVSS	low polyreactivity
QVKLVESGGGIVQAGGSLRLTCAASGSTVRLYAMGCYRQAPGKERELVAAISTRGSSTYYADSVKGRFTISRDNAKNTVYLQMNSLKPEDTAVFYCAADAYFIYSRYWYDYWGQGTQVTVSS	high polyreactivity
QVKLVESGGGLDQAGGSLRLSCSASRSTFWHYAMGWYRQAPGKERELVASISGRGTSTYYADSVKGRFTISRDNAKNTVFFQMNSLKPEDTAVYYCAATKWFGAFDYWGQGTQVTVSS	low polyreactivity
QVKLVESGGGLVQAGGSIRLSCAASGRIFTTYTMGWYRQAPGKERELVAAITRGDRTNYADSVKGRFTISRDNAKNTVYLQMNSLIPEDTAVYYCAAVGNWYYRDPLHSRFYYWGQGTQVTVSS	high polyreactivity
QVKLVESGGGLVQAGGSLRLRCAASGSIFRFYVMGWYRQAPGKERELVAAISSGGSTDYADSVKGRFTISRDNAKNTVYLQMYSLKPEDTAVYYCGARVRTVRNTYYSWGQGTQVTVSS	high polyreactivity
QVKLVESGGGLVQAGGSLRLSCAASGFIIGGYGMGWYRQAPGKERELVAVITASGGSTYYADSVKWLFTISRDNAKNTVYLQMNSLKPEDTGVYYCAARVGRYGYSQYYYWGQGTQVTVSS	high polyreactivity
QVKLVESGGGLVQAGGSLRLSCAASGFTFTQYGLGWNRQAPGKEREFVATIRFSGDNTYYADSVKGRFTISRDNAKNTVYLQMNSLKPEDTAVYYCNADNRAFFVYPVSKRYDSWGQGTQVTVSS	low polyreactivity
QVKLVESGGGLVQAGGSLRLSCAASGLIFDTYAMGWYRQAHGKERELVADITLSGGSTYYADSLKGRFTISRDTAKNTVYLQMNSLKPVDTAVYYCAADSVSLFYWDQRYPDEYDYWGQGTQVTVSS	low polyreactivity
QVKLVESGGGLVQAGGSLRLSCAASGNTLYFNAMGWYRQAPGKERELVADISWGGGSTDYADSVKGRFTISRDNAKNTVYLQMNSLKPEDTAVYYCAADILSLPEYDYWGQGTQVTVSS	low polyreactivity
QVKLVESGGGLVQAGGSLRLSCAASGRIFSYNAMGGYRPEPGKESEVVAAMSDGGGRTYYADSVKGRFTISRDNAKNTVYVQMNSLKPEDTAVYYCAARYSVYYFGQRNGRYGYWGQGTQVTVSS	high polyreactivity
QVKLVESGGGLVQAGGSLRLSCAASGRNFYVYGMGWYRQAPGKERELVASITYRCGSTSYADSVKGRFTISRDNAKNTVYLQMNSLKPEDTAVYYCNADTYYRSDYWGQGTQVTVSS	high polyreactivity
QVKLVESGGGLVQAGGSLRLSCAASGRTVTRNTMGWYRQAPGKERELVAAISRSGGGTYYADSVKGRFTISRDNAKNTVYLQMNSLKPEDTAVYYCAAVPQNYRNFDGYNYWGQGTQVTVSS	high polyreactivity

Sequence	polyreactivity (PSR sort gate)
QVKLVESGGGLVQAGGSLRLSCAASGSIFSRNTMGWSRQEPGKERELVAGISSSGSRTYYADSVKGRFTISRDNAKNTVYLQMNSLKPEDTAVYYCAKAWPDHWYSRYDYWGQGTQLTVSS	low polyreactivity
QVKLVESGGGLVQAGGSLRLSCAASGSIVVRYTMGWYRQAPGKERELVAAIYWGGGSTYYADSVKGRFTISRDNAKNTVYLQMNSLKAEDTAVYYCKKRYILLYDYWGQGTQVTVSS	low polyreactivity
QVKLVESGGGLVQAGGSLRLSCAASGSTFHVYAMGWYRQEPGKESELVAGITSSGYSTYYADSVKGRFTISRDNAKNTVYLKMNSLKPEDTAFYYCNADIRGPYYYHRYDYWGQGTQVTVSS	low polyreactivity
QVKLVESGGGLVQAGGSLRLSCAASGSTYHSNAMGWYRRAHGKEMEFVASISIGGSTNYADSVKGRYTISRDNAKNTVYLQMNSLKAEDTAVYYSATEPNPRRPRVDYDYWGQGTQVTVSS	low polyreactivity
QVKLVESGGGLVQAGGSLRLSCCASGSTFSPNTMGRYRQAPGKDREVVAAITYRGANTYYADSVKGRFTISRDNAKLTVYLQMNSLKPEDTAVYYCSAVYAYHHVGFGYWGQGTQVTVSS	low polyreactivity
QVKLVESGGGLVQAGGSLRLSCDASGSTFIANTMGWYRQAPGKERELVAAITDSGGSTYYADSVKGRFTISRDNAKNTVYLQMNSLKPEDTAVYYCNADYVYVFIRAWSYDYWGQGTQVTVSS	low polyreactivity
QVKLVESGGGLVQAGGSLRLSCPASGSTFYYNAMGWYRQAPGKERELVARISRSGGSTYADSVKGRFTISRDNAKNTVYLQMNSLKPEDTAVYYCNADAYGTPEFTSYAVRYDYWGQGTQVTVSS	low polyreactivity
QVKLVESGGGLVQAGGSLRLSCSASGLTLSGNAMGWYRQAPGKERELVAAITGRGGSTTYADSVKGRFTISRDNAKNTVYLQMNSLKPEDTAVYYCPATRYSWHNRGSRRHRYDYWGQGTQVTVSS	low polyreactivity
QVKLVESGGGLVQAGGSLRLSFAASGFTCNANAMGWYRQAPGQERELVAAISLSGGRTYYADSVKGRFTISRDNAKNTVYLQMNSLKAEDTAVYYCAASPDGSFRRFSRVVSGDYWGQGTQVTVSS	high polyreactivity
QVKLVESGGGLVQAGGSLRLSLQPPDSPSTTMLWDGIDRRLAKKGSWLPVFLPSGGTTYADSVKGRFTISRDNAKYTVYLQMNSLKPEDTAVYYCNADLSDVAVTDHDYWGQVTQVTVSS	low polyreactivity
QVKLVESGGGLVQAGGSLRLSWAASGSILNRYAMGWYRQAPGKERELVAAITGSSGSTYYADSVKGRFTISRDNAKNTVYLQMNSLKPEDTAVYYCATAFRNGRGSYYYWGQGTQVTVSS	high polyreactivity
QVKLVESGGGLVQAGGSLRLTCAASGSTLYAYAMGRYRQAPGKERELVAAISSRAVRTYYADSVKGRFTISRDNAKNTVYLQINSLKPEDTAVYYCAARGQAYSGDRMYYWGQGTQVTVSS	high polyreactivity
QVKLVESGGGLVQAGGTLPITCAASGRTFARYAMVWYRQAPGKERELVSAITGRSGTNTYYADSVKGRFTISRDNAKNTVYLQMNSLKPEDTAVYYCAADLQGYYFRGRWTSYDYWGQGTQVTVSS	high polyreactivity
QVKLVESGGRLVQAGGILRLSSPASGFIFRGYARGWYRQAPGKERELVAAINSGGSTNYADSVKGRFTISRDNAKNTVYLQMIRLKPEETAVYYCAARVKTSYRYLRTYNYWGLGTQVTVSS	high polyreactivity
QVKLVESVGALVQAGGSHRLSCAASGNTFPWYVLGWYRHATGKERELLAAITSSGSTTYYADSVKGRFTISRDNAKNTVYLQMNSLKPDDNAVYYCAARNYGPYDYWGPGTQVTVSS	low polyreactivity
QVKLVYSGGGLVQAGGSLRLSCAASVSIFYYYGMGWYRQAPVKERQLVAAITYRGTRTYYADSGKGRFTFSRDNAKTTVYLQMYSLKAEDTALYYCAAERRIYSSDSWGQGTQVTVSS	high polyreactivity
QVKRVESGGGLVQAGGSLRLSCAASGSTFYRYAMGWYRQAPGKERELVAAINGRGGRTYYADSVKGRFTISRDNAKNTVYLQMNSLKPEDTAVYYCAARGYAPDTYGYWGQGTQVTVSS	high polyreactivity
QVLLQESGAGLVQAGGSLRLSCAASGTISTDIRMGWYRLAPGKEREFVASIDGCSTTYYADSVKGRFTISRDNAKNSVYLQLNSLKPEDTAMYYCAAREDTEFYLYYWGQGNQVTVSS	low polyreactivity
QVLLQESGGGLVQAGGSLRLSCAASGTISTDIRMGWYRLAPGKEPEFVASIDGCSTTYYADSVKVRFTISRDNAKNTVYLQMNSVIPEDSAMYYCAAREATEFYLYYWGQGTQVTVSS	low polyreactivity
QVLLQESGGGLVQAGVSLRLCCAASGYISGDQFMGWYRQAPGKEREFVAGIGNGTNTNYADSVKGRFTTSRDNAKNTVYLQMNSLKQEDTAVYYCAADPSDGSTLAYWGHGTQVTVSS	high polyreactivity
QVLLQESGGGLVQAGVSLRLSCAASGNIFSAGGMGWYRQAPVNERELVAGIGTGTSTNYADSVKGRFTISRDNAKNTVYLQMNSLKPEDTAVYYCAAAYYSGLSHWYWGQGTQVTVSS	low polyreactivity
